Patent US10450368

What was measured:
[1] = target: CH505w160.D1D8gp120 (HIV-1); assay: direct-binding ELISA
[2] = target: CH505w136.B8D8gp120 (HIV-1); assay: direct-binding ELISA
[3] = target: CH505w136.B4D8gp120 (HIV-1); assay: direct-binding ELISA
[4] = target: CH505w136.B2D8gp120/293F (HIV-1); assay: direct-binding ELISA
[5] = target: CH505w136.B36D8gp120 (HIV-1); assay: direct-binding ELISA
[6] = target: CH505w136.B12D8gp120 (HIV-1); assay: direct-binding ELISA
[7] = target: CH505w160.C12D8gp120 (HIV-1); assay: direct-binding ELISA
CH505.M11D8gp120/293F = assay: direct-binding ELISA
[8] = target: CH505w136.B10D8gp120 (HIV-1); assay: direct-binding ELISA
[9] = target: CH505w136.B20D8gp120 (HIV-1); assay: direct-binding ELISA
CH505.M5D8gp120293F = assay: direct-binding ELISA
CH505.M9D8gp120/293F = assay: direct-binding ELISA
[10] = target: CH505_w137V209C12.D11gp120 (HIV-1); assay: direct-binding ELISA
[11] = target: CH505w160.C11D8gp120 (HIV-1); assay: direct-binding ELISA
[12] = target: CH505w160.D5D8gp120/293F (HIV-1); assay: direct-binding ELISA
[13] = target: CH505.TF mutant gp120 M20 (HIV-1); assay: direct-binding ELISA
[14] = target: CH505w160.C2D8gp120 (HIV-1); assay: direct-binding ELISA
CH505.M21D8gp120/293F = assay: direct-binding ELISA
[15] = target: CH505w136.B18D8gp120 (HIV-1); assay: direct-binding ELISA
[16] = target: CH505w136.B29D8gp120 (HIV-1); assay: direct-binding ELISA
[17] = target: CH505_w137V201B12.D11gp120 (HIV-1); assay: direct-binding ELISA
[18] = target: CH505w160.C14D8gp120 (HIV-1); assay: direct-binding ELISA
[19] = target: CH505w136.B5D8gp120 (HIV-1); assay: direct-binding ELISA
CH505.M19D8gp120 = assay: direct-binding ELISA
Jo-1 [20] = target: Jo-1 (UniProt P12081); assay: AtheNA, Ab 25 ug/ml
SSA [21] = assay: AtheNA, Ab 25 ug/ml
RNP (ribonucleoprotein) [22] = assay: AtheNA, Ab 25 ug/ml
Histones [23] = assay: AtheNA, Ab 25 ug/ml
SSB [24] = target: SSB (UniProt P05455); assay: AtheNA, Ab 25 ug/ml
Centromere B [25] = target: Centromere B (UniProt P07199); assay: AtheNA, Ab 25 ug/ml
Scl-70 [26] = target: Scl-70 (UniProt P11387); assay: AtheNA, Ab 25 ug/ml
Sm (Smith antigen) [27] = assay: AtheNA, Ab 25 ug/ml
[28] = target: HIV-1 CH505 transmitted/founder gp120 Env (HIV-1); assay: competition ELISA, blocking of CH106 binding to CH505 TF gp120 (self)
[29] = target: HIV-1 CH505 transmitted/founder gp120 Env (HIV-1); assay: competition ELISA, blocking of CH236 binding to CH505 TF gp120
Jo-1 [30] = target: Jo-1 (UniProt P12081); assay: AtheNA, Ab 12.5 ug/ml
SSA [31] = assay: AtheNA, Ab 12.5 ug/ml
RNP (ribonucleoprotein) [32] = assay: AtheNA, Ab 12.5 ug/ml
Histones [33] = assay: AtheNA, Ab 12.5 ug/ml
SSB [34] = target: SSB (UniProt P05455); assay: AtheNA, Ab 12.5 ug/ml
Centromere B [35] = target: Centromere B (UniProt P07199); assay: AtheNA, Ab 12.5 ug/ml
Scl-70 [36] = target: Scl-70 (UniProt P11387); assay: AtheNA, Ab 12.5 ug/ml
Sm (Smith antigen) [37] = assay: AtheNA, Ab 12.5 ug/ml
CH505w020.14D8gp120 = assay: ELISA
CH0505_CON D7gp120/293i = assay: ELISA
CH505w030.20D8gp120/293F = assay: ELISA
CH505.w30.12D8gp120 = assay: ELISA
[38] = target: HIV-1 CH505 transmitted/founder gp120 Env (HIV-1); assay: competition ELISA; competitor biotinylated CH241 on CH505 TF gp120
[39] = target: HIV-1 CH505 transmitted/founder gp120 Env (HIV-1); assay: competition ELISA, blocking of CH239 binding to CH505 TF gp120

Centromere B, sequence (P07199 whole entry): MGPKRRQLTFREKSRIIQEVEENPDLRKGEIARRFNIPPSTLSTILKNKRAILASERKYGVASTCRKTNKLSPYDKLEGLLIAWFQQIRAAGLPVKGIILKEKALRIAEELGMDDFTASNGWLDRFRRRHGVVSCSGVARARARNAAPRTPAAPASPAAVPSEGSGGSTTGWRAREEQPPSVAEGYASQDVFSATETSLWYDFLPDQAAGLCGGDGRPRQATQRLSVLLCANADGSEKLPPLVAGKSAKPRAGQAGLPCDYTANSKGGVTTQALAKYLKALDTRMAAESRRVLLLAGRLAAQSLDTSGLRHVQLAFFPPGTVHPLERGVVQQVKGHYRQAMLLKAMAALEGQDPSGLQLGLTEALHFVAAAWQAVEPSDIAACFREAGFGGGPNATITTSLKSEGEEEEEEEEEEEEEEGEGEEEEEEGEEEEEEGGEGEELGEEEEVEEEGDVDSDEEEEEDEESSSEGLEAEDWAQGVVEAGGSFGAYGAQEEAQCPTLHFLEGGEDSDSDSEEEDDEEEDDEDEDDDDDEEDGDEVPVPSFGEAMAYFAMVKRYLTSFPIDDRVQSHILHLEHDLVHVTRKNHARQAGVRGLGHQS
Jo-1, sequence (P12081 whole entry): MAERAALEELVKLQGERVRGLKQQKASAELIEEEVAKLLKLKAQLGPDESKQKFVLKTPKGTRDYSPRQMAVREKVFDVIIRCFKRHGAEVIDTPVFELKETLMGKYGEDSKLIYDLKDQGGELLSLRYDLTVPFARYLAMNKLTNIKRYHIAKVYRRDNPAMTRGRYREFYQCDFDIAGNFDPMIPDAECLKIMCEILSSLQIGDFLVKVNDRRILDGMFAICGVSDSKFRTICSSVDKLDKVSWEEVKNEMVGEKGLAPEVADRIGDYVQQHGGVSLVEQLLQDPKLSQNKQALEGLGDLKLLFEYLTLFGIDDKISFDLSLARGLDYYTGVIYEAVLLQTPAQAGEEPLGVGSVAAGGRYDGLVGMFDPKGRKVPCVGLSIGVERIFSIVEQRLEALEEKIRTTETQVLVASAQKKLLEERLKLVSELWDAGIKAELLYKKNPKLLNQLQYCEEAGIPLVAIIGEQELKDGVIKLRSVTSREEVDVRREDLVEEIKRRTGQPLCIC
SSB, sequence (P05455 whole entry): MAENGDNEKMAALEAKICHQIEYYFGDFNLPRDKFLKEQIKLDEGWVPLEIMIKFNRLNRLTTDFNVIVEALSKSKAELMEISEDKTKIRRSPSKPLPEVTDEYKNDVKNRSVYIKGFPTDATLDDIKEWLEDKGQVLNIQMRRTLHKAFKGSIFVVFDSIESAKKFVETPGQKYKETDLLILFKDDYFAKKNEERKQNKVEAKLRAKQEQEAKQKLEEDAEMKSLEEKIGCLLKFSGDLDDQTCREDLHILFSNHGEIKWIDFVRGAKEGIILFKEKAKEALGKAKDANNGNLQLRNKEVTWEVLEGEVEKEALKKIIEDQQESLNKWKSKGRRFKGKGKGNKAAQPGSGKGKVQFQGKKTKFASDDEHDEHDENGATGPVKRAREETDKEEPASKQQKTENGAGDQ
Scl-70, sequence (P11387 whole entry): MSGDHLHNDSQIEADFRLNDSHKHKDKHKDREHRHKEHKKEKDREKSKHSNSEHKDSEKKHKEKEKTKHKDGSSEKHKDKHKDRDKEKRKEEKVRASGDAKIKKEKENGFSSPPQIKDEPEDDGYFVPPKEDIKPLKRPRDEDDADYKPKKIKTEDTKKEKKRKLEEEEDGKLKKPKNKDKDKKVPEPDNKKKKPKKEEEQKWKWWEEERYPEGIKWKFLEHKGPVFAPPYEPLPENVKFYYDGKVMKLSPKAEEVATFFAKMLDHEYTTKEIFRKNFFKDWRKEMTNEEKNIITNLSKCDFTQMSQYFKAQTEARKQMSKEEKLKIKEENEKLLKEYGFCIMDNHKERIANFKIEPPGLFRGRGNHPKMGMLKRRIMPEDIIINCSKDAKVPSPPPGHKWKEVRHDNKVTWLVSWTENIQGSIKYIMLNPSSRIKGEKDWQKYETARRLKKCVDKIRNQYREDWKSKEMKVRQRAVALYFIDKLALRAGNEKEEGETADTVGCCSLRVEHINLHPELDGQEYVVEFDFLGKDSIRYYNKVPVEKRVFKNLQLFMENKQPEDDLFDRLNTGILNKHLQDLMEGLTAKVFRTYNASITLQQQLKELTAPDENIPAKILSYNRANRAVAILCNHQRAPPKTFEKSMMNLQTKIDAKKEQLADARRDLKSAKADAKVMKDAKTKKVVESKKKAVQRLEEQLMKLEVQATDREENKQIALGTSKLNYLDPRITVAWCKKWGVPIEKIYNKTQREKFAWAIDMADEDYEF

CH106 (antibody)
LogAUC [1]: 7.06
LogAUC [2]: 11.7
LogAUC [3]: 11.8
LogAUC [4]: 12.7
LogAUC [5]: 13.1
LogAUC [6]: 11.9
LogAUC [7]: 12.2
LogAUC (CH505.M11D8gp120/293F): 12.8
LogAUC [8]: 8.97
LogAUC [9]: 12.1
LogAUC (CH505.M5D8gp120293F): 8.37
LogAUC (CH505.M9D8gp120/293F): 11
LogAUC [10]: 12.2
LogAUC [11]: 8.15
LogAUC [12]: 5.64
LogAUC [13]: 10.7
LogAUC [14]: 9.29
LogAUC (CH505.M21D8gp120/293F): 11.5
LogAUC [15]: 13.3
LogAUC [16]: 12
LogAUC [17]: 12.5
LogAUC [18]: 6.94
LogAUC [19]: 10.9
LogAUC (CH505.M19D8gp120): 12.2
AtheNA signal (relative luminescence units) (Jo-1 [20]): 2
AtheNA signal (relative luminescence units) (SSA [21]): 8
AtheNA signal (relative luminescence units) (RNP (ribonucleoprotein) [22]): 3
AtheNA signal (relative luminescence units) (Histones [23]): 3
AtheNA signal (relative luminescence units) (SSB [24]): 3
AtheNA signal (relative luminescence units) (Centromere B [25]): 2
AtheNA signal (relative luminescence units) (Scl-70 [26]): 2
AtheNA signal (relative luminescence units) (Sm (Smith antigen) [27]): 1
IC50 [28]: 2.5 µg/mL
IC50 [29]: 6.8 µg/mL
AtheNA signal (relative luminescence units) (Jo-1 [30]): 3
AtheNA signal (relative luminescence units) (SSA [31]): 11
AtheNA signal (relative luminescence units) (RNP (ribonucleoprotein) [32]): 2
AtheNA signal (relative luminescence units) (Histones [33]): 2
AtheNA signal (relative luminescence units) (SSB [34]): 5
AtheNA signal (relative luminescence units) (Centromere B [35]): 2
AtheNA signal (relative luminescence units) (Scl-70 [36]): 3
AtheNA signal (relative luminescence units) (Sm (Smith antigen) [37]): 4
LogAUC (CH505w020.14D8gp120): 11.2
LogAUC (CH0505_CON D7gp120/293i): 11.9
LogAUC (CH505w030.20D8gp120/293F): 7.25
LogAUC (CH505.w30.12D8gp120): 11.8
IC50 [38]: 14.3 µg/mL
IC50 [39]: 4.6 µg/mL
